The target of assay [1] is T1, B7-1-Fc (R&D Systems Cat #140-B1) (UniProt P33681 35-242).
T1 construct: Bought reagent; also called CD80; not shown: Fc part of the bought fusion
T1 sequence (looked up): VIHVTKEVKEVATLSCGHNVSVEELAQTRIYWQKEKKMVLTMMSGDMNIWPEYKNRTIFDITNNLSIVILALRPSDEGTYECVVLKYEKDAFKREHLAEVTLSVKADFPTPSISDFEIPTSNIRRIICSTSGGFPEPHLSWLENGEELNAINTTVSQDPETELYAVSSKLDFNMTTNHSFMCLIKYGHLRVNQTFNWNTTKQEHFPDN
Kind of assay: BLItz bio-layer interferometry; D1.3 IgG held on immobilised lysozyme, B7-1-Fc added at Point 1, buffer at Point 2.

The target in assay [2] is T1, B7-1-Fc (R&D Systems Cat #140-B1). Put plainly: SPR (Biacore X100); molecule captured on biotin-lysozyme, B7-1-Fc as analyte. Background: In SPR one partner is held on a chip, and binding of the other changes the refractive index at the surface.
For assay [3] the target is unchanged. The description is as above. The source holds these as a separate data set.
Method: The theoretical maximum binding signal for the analyte (Rmax) was calculated based on the amount of captured IgG-VLD protein, accounting for the molecular weight of the analyte and ligand.

Where two headings read alike, the source gives them in different places.

B1: D1.3 anti-lysozyme antibody [D1.3 IgG] (antibody, V domains shown)
VH: EVKLQESGPGLVAPSQSLSITCTVSGFSLTGYGVNWVRQPPGKGLEWLGMIWGDGNTDYNSALKSRLSISKDNSKSQVFLKMNSLHTDDTARYYCARERDYRLDYWGQGTTVTVSS
VL: DIELTQSPASLSASVGETVTITCRASGNIHNYLAWYQQKQGKSPQLLVYYTTTLADGVPSRFSGSGSGTQYSLKINSLQPEDFGSYYCQHFWSTPRTFGGGTKLELKR
notes: Full length IgG1 kappa, expressed in Expi293 cells; parent of all IgG-VLD fusions; also called D1.3 IgG alone (full length); D1.3 antibody
Take B1: in assay [1], the binding result is listed as “no binding”.

B2: D1.3 Fab-VLDx1 (LC) (bispecific antibody)
heavy: EVKLQESGPGLVAPSQSLSITCTVSGFSLTGYGVNWVRQPPGKGLEWLGMIWGDGNTDYNSALKSRLSISKDNSKSQVFLKMNSLHTDDTARYYCARERDYRLDYWGQGTTVTVSSASTKGPSVFPLAPSSKSTSGGTAALGCLVKDYFPEPVTVSWNSGALTSGVHTFPAVLQSSGLYSLSSVVTVPSSSLGTQTYICNVNHKPSNTKVDKRVEPKSCAAAGLGGHHHHHHGAAEQKLISEEDL
light: DIELTQSPASLSASVGETVTITCRASGNIHNYLAWYQQKQGKSPQLLVYYTTTLADGVPSRFSGSGSGTQYSLKINSLQPEDFGSYYCQHFWSTPRTFGGGTKLELKRTVAAPSVFIFPPSDEQLKSGTASVVCLLNNFYPREAKVQWKVDNALQSGNSQESVTEQDSKDSTYSLSSTLTLSKADYEKHKVYACEVTHQGLSSPVTKSFNRGECSGGGGSGGGGSGGGGSGGGGSKAMHVAQPAVVLASSRGIASFVCEYASPGKYTEVRVTVLRQADSQVTEVCAATYMTGNELTFLDDSICTGTSSGNQVNLTIQGLRAMDTGLYICKVELMYPPPYYLGIGNGTQIYVIDPEPSPDSN
notes: also called D1.3 VLDx1 (LC); D1.3 Fab-VLDx1 (CL)
What is called Kd is a measure of binding affinity in units of concentration. Higher therefore signals a looser complex. For orientation: koff means a measure of how fast the partners let go of each other. Read a low koff as a long-lived complex. By kon is commonly meant the second-order rate constant of association. In the case of B2, in assay [2], binding was put at a Kd of 13.6 nM, the koff came to 0.00296 s⁻¹ and the association rate constant (kon) worked out at 218000 M⁻¹ s⁻¹.

B3: D1.3 IgG-VLDx2 (LC) (bispecific antibody)
heavy: not shown
light: DIELTQSPASLSASVGETVTITCRASGNIHNYLAWYQQKQGKSPQLLVYYTTTLADGVPSRFSGSGSGTQYSLKINSLQPEDFGSYYCQHFWSTPRTFGGGTKLELKRTVAAPSVFIFPPSDEQLKSGTASVVCLLNNFYPREAKVQWKVDNALQSGNSQESVTEQDSKDSTYSLSSTLTLSKADYEKHKVYACEVTHQGLSSPVTKSFNRGECSGGGGSGGGGSGGGGSGGGGSKAMHVAQPAVVLASSRGIASFVCEYASPGKYTEVRVTVLRQADSQVTEVCAATYMTGNELTFLDDSICTGTSSGNQVNLTIQGLRAMDTGLYICKVELMYPPPYYLGIGNGTQIYVIDPEPSPDSN
notes: unfused heavy chain; also called D1.3 IgG-VDLx2 (LC); bi-specific-D1.3 IgG-VLDx2 (LC)
For B3, in assay [3], the dissociation constant Kd worked out at 24.5 nM, the koff was found to be 0.004 s⁻¹ and the on-rate constant (kon) came to 163000 M⁻¹ s⁻¹.

B4: D1.3 IgG-VLDx4 (HC+LC) (bispecific antibody)
heavy: not shown
light: DIELTQSPASLSASVGETVTITCRASGNIHNYLAWYQQKQGKSPQLLVYYTTTLADGVPSRFSGSGSGTQYSLKINSLQPEDFGSYYCQHFWSTPRTFGGGTKLELKRTVAAPSVFIFPPSDEQLKSGTASVVCLLNNFYPREAKVQWKVDNALQSGNSQESVTEQDSKDSTYSLSSTLTLSKADYEKHKVYACEVTHQGLSSPVTKSFNRGECSGGGGSGGGGSGGGGSGGGGSKAMHVAQPAVVLASSRGIASFVCEYASPGKYTEVRVTVLRQADSQVTEVCAATYMTGNELTFLDDSICTGTSSGNQVNLTIQGLRAMDTGLYICKVELMYPPPYYLGIGNGTQIYVIDPEPSPDSN
notes: also called IgG Imx4 (HC+LC); IgG Imx4 (HCLC)
Turning to B4, in assay [3], the Kd stood at 5.47 nM, the koff was 0.0029 s⁻¹ and the kon worked out at 530000 M⁻¹ s⁻¹.

B5: D1.3 Fab-VLDx2 (HC+LC) (bispecific antibody)
heavy: EVKLQESGPGLVAPSQSLSITCTVSGFSLTGYGVNWVRQPPGKGLEWLGMIWGDGNTDYNSALKSRLSISKDNSKSQVFLKMNSLHTDDTARYYCARERDYRLDYWGQGTTVTVSSASTKGPSVFPLAPSSKSTSGGTAALGCLVKDYFPEPVTVSWNSGALTSGVHTFPAVLQSSGLYSLSSVVTVPSSSLGTQTYICNVNHKPSNTKVDKKVEPKSCSGGGGSGGGGSGGGGSGGGGSKAMHVAQPAVVLASSRGIASFVCEYASPGKYTEVRVTVLRQADSQVTEVCAATYMTGNELTFLDDSICTGTSSGNQVNLTIQGLRAMDTGLYICKVELMYPPPYYLGIGNGTQIYVIDPEPSPDSN
light: DIELTQSPASLSASVGETVTITCRASGNIHNYLAWYQQKQGKSPQLLVYYTTTLADGVPSRFSGSGSGTQYSLKINSLQPEDFGSYYCQHFWSTPRTFGGGTKLELKRTVAAPSVFIFPPSDEQLKSGTASVVCLLNNFYPREAKVQWKVDNALQSGNSQESVTEQDSKDSTYSLSSTLTLSKADYEKHKVYACEVTHQGLSSPVTKSFNRGECSGGGGSGGGGSGGGGSGGGGSKAMHVAQPAVVLASSRGIASFVCEYASPGKYTEVRVTVLRQADSQVTEVCAATYMTGNELTFLDDSICTGTSSGNQVNLTIQGLRAMDTGLYICKVELMYPPPYYLGIGNGTQIYVIDPEPSPDSN
notes: also called D1.3 VLDx2 (HC+LC); D1.3 Fab-VLDx2 (LC+HC)
Take B5: in assay [2], binding was put at a Kd of 9.73 nM, the koff is 0.00433 s⁻¹ and the association rate constant (kon) was found to be 445000 M⁻¹ s⁻¹.

B6: D1.3 IgG-VLDx2 (HC) (bispecific antibody)
heavy: not shown
light: DIELTQSPASLSASVGETVTITCRASGNIHNYLAWYQQKQGKSPQLLVYYTTTLADGVPSRFSGSGSGTQYSLKINSLQPEDFGSYYCQHFWSTPRTFGGGTKLELKRTVAAPSVFIFPPSDEQLKSGTASVVCLLNNFYPREAKVQWKVDNALQSGNSQESVTEQDSKDSTYSLSSTLTLSKADYEKHKVYACEVTHQGLSSPVTKSFNRGEC
notes: unfused kappa light chain; also called bi-specific-D1.3 IgG-VLDx2 (HC)
As to B6, in assay [3], the Kd came to 5.44 nM, the koff was determined as 0.0028 s⁻¹ and the kon turned out to be 516000 M⁻¹ s⁻¹.

B7: D1.3 Fab-VLDx1 (HC) (bispecific antibody)
heavy: EVKLQESGPGLVAPSQSLSITCTVSGFSLTGYGVNWVRQPPGKGLEWLGMIWGDGNTDYNSALKSRLSISKDNSKSQVFLKMNSLHTDDTARYYCARERDYRLDYWGQGTTVTVSSASTKGPSVFPLAPSSKSTSGGTAALGCLVKDYFPEPVTVSWNSGALTSGVHTFPAVLQSSGLYSLSSVVTVPSSSLGTQTYICNVNHKPSNTKVDKKVEPKSCSGGGGSGGGGSGGGGSGGGGSKAMHVAQPAVVLASSRGIASFVCEYASPGKYTEVRVTVLRQADSQVTEVCAATYMTGNELTFLDDSICTGTSSGNQVNLTIQGLRAMDTGLYICKVELMYPPPYYLGIGNGTQIYVIDPEPSPDSN
light: DIELTQSPASLSASVGETVTITCRASGNIHNYLAWYQQKQGKSPQLLVYYTTTLADGVPSRFSGSGSGTQYSLKINSLQPEDFGSYYCQHFWSTPRTFGGGTKLELKRTVAAPSVFIFPPSDEQLKSGTASVVCLLNNFYPREAKVQWKVDNALQSGNSQESVTEQDSKDSTYSLSSTLTLSKADYEKHKVYACEVTHQGLSSPVTKSFNRGEC
In assay [2], B7 had a dissociation constant Kd of 5.41 nM, a koff of 0.00285 s⁻¹ and a kon of 526000 M⁻¹ s⁻¹.

(Values after US20210040177A1 (IMUNEXUS, published 2021).)
